Residue numbers refer to the chain shown, from its start.
T1: human WISE (human, UniProt Q6X4U4 24-206)
T1 construct: Recombinant, made in E. coli or mammalian cells; biotinylated in the ELISAs, amine-coupled to CM5 in Biacore; also called huWise; huWISE
T1 sequence: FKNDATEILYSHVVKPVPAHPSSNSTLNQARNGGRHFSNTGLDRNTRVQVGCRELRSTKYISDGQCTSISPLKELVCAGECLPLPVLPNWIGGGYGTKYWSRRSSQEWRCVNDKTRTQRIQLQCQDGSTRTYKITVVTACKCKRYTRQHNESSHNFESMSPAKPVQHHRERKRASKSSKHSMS

T2: mouse WISE (mouse, UniProt Q9CQN4 24-206)
T2 construct: Recombinant purified protein; also called muWISE; mWISE
T2 sequence: T1 sequence with N39S, T46S, M159V, V165A, M182L

B1: Ab-D (antibody, V domains shown)
VH: QVQLVQSGAEVKKPGSSVKVSCKASGGTFSSTYISWVRQAPGQGLEWMGWIYAGTGGTRYNRKFTGRVTITADESTSTAYMELSSLRSEDTAVYYCAREGVDGWFTYWGQGTLVTVSS
VL: DIQMTQSPSSLSASVGDRVTISCRASESVDNYGSSFMNWYQQKPGKAPKLLIYAASNQGSGVPSRFSGSGSGTDFTLTISSLQPEDFATYYCQQSKEVPYTFGQGTKLEIKR
notes: Humanized Ab-C, human kappa / human IgG2
B2: light chain of SEQ ID NO: 116 paired with the heavy chain of SEQ ID NO: 24 (antibody, human IgG2, kappa, V domains shown)
VH: B1 VH
VL: DIQMTQSPSSLSASVGDRVTITCRASRDISVYVNWYQLKPGQAPRLLIYGASNLGFGVPSRFSGSGYGTDFALTISGLQPEDFATYSCQQSYSIPLTFGQGTRVDTKR
B3: Ab-O (antibody, human IgG2, V domains shown)
VH: B1 VH
VL: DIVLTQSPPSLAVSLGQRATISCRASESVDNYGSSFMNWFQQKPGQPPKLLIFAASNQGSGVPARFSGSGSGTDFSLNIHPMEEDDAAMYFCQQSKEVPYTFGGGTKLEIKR
notes: Human IgG2 heavy chain
B4: light chain of SEQ ID NO: 120 paired with the heavy chain of SEQ ID NO: 24 (antibody, human IgG2, kappa, V domains shown)
VH: B1 VH
VL: DIQMTQSPATLSLSPGERATLSCRASRSVSSNLAWYQQKPGRAPRLLMFGASTRATGVPARFSGSGSGTEFTLTISSLQSEDVATYYCQHDNELPLTFGGGTKVELKR
B5: Ab-C (antibody, V domains shown)
VH: QGQMQQSGAELVKPGASVQLSCKTSGFTFSSTYISWLKQKPGQSLEWIAWIYAGTGGTRYNRKFTGKAQLTVDTSSSTAYMQFSSLTTEDSAIYYCAREGVDGWFTYWGQGTLVTVSA
VL: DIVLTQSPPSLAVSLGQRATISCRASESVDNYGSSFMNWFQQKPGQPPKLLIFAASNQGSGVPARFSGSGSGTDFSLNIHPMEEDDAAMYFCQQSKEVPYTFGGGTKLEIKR
notes: Murine monoclonal antibody from hybridoma, tested in its mature form; also called Antibody C; antibody C
B6: Ab-E (antibody, mouse IgG1, kappa, V domains shown)
VH: B5 VH with Q19K, S30N, T32H, S44T, R62Q
VL: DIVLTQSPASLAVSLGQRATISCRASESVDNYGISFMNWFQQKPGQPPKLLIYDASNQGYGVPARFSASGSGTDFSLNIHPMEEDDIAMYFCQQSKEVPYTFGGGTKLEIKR
notes: Murine monoclonal antibody from hybridoma, tested in its mature form; polypeptide numbers 26 and 28 and the light/heavy assignment are inferred; also called Antibody E; antibody E
B7: Ab-P (antibody, V domains shown)
VH: EVRLVESGGGLVQPGRSLKLSCAASGFPFSNYGMAWVRQAPTRGLEWVASITYDGSITFYRDSVKGRFTISRDNAKSTLYLQMDSLRSEDTATYYCTSSDTTDYYHGGFWFAYWGQGTLVTVSS
VL: DIVLTQSPALAVSLGQRATLSCRASQSVSISGHNLMHWYQQKPGQQPKLLIYRASNLPSGIPARFSGSGSGTGFTLTINPVQADDIATYYCQQSRESPWTFGGGTTLELKR
notes: also called Antibody P
B8: Ab-A (antibody, V domains shown)
VH: QIHLVQSGPELKKPGETVKISCKASGFSFTTYGMSWVKQAPGKGLKWMGWINTYSGVPTYADDFKGRFAFSLETSASTAYLQINNLKNEDTATYFCVRGREYYYGSGIAFWGQGTLVTVSA
VL: DVVMTQTPLSLPVSLGDQASISCRSSQSLEHSNGNTYLHWYLQKPGQSPKLLIYKVSNRFSGVPDRFSGSGSGTDFTLKISRVEAEDLGVYFCSQSTHVPLTFGAGTKVELKR
notes: Murine monoclonal antibody from hybridoma, tested in its mature form; The entries may still carry a signal peptide; also called Antibody A; antibody A
B9: Ab-B (antibody, V domains shown)
VH: QVQLVQSGAEVKKPGASVKVSCKASGYTFTTYGMSWVRQAPGQGLEWMGWINTYSGVPTYADDFKGRFVFSLDTSVSTAYLQINSLKAEDTAVYYCARGREYYYGSGIAFWGQGTLVTVSS
VL: B8 VL with T7S, S14T, D17Q, Q18P, K50Q, L88V, A105G, L111I
notes: Humanized Ab-A, human kappa / human IgG2
B10: Ab-G (antibody, human IgG2, kappa, V domains shown)
VH: B9 VH with R38K, Y95F, A97V
VL: B8 VL with T7S, S14T, D17Q, Q18P, K50Q, L88V, A105G, L111I
notes: as for B9

Tests used:
human WISE [1] = biological target: T1, human WISE; assay: ELISA, antibody coated, biotinylated human WISE titrated
human WISE [2] = biological target: T1, human WISE; assay: assay not specified (IgG2 from transient transfection)
mouse WISE = biological target: T2, mouse WISE; assay: KinExA solution equilibrium, rmuWise-coated beads
Description: (§1) Binding of muAbs with rhuWise and rmuWise were tested on KinExA. Azlactone beads (Pierce) was pre-coated with rhuWise/rmuWise at pH9.0 and blocked with ethanolamine, then further washed with sample buffer (0.1 mg/mL Heparin in BSA/P20/PBS solution). 10 pM and 100 pM of Ab-A, Ab-C and Ab-E were incubated with various concentrations (0.1 pM-3 nM) of rhuWise/rmuWise at room temperature for at least 10 hours before run through the rhuWise/rmuWise coated beads.
(§2) The amount of the bead-bound muAbs were quantified by fluorescent (Cy5) labeled goat anti-mouse IgG (H+L) antibody (Jackson Immuno Research). The binding signal is proportional to the concentration of free muAbs at binding equilibrium. Equilibrium dissociation constant (Kd) was obtained from nonlinear regression of the competition curves using a two-curve one-site homogeneous binding model (KinExA™ Pro software).

[3] = biological target: T3, T49 tryptic fragment of human WISE (human); assay: Biacore peptide competition, 3 nM antibody preincubated with 30 nM peptide
T3 construct: Multiply truncated human WISE from tryptic digestion, isolated by HPLC; the two pieces are held together by cystine-knot disulfide bonds (C1-C5, C2-C6, C3-C7); also called T49 peptide
Description: (§3) To identify which peptides compete with WISE for binding to the antibodies of the invention, rhuWise was immobilized on a CM5 surface with high density. 3 nM of mature antibodies Ab-A, Ab-C and Ab-E were pre-incubated with and without 30 nM peptides and huWise (as control), then injected over the huWise surfaces. As shown in FIGS. 9A and B both T49 and T56.1 peptides blocked the binding of the antibodies to huWISE.

[4] = biological target: T4, T56.1 tryptic fragment of human WISE (human); assay: as above
T4 construct: Multiply truncated human WISE from tryptic digestion, isolated by HPLC; the two pieces are held together by cystine-knot disulfide bonds; also called T56.1 peptide
Description: as §3

human WISE [5] = biological target: T1, human WISE; assay: KinExA solution equilibrium, rhuWise-coated azlactone beads
Description: as §1, §2

[6] = biological target: T3, T49 tryptic fragment of human WISE; assay: Biacore peptide competition (FIG. 9B)
Description: as §3

[7] = biological target: T4, T56.1 tryptic fragment of human WISE; assay: Biacore peptide competition (FIG. 9B)
Description: as §3

| Binder | binding result (human WISE [1]) | binding result (mouse WISE) | binding result [3] | binding result [4] | Kd (human WISE [5]) [pM] | also measured |
| --- | --- | --- | --- | --- | --- | --- |
| B1 | binds | – | – | – | – | – |
| B2 | – | – | – | – | – | binding result (human WISE [2]): binds |
| B3 | binds | – | – | – | – | – |
| B4 | – | – | – | – | – | binding result (human WISE [2]): binds |
| B5 | – | binds | binds | binds | ~4 | – |
| B6 | – | binds | binds | binds | ~18 | – |
| B7 | – | – | – | – | – | binding result [6]: binds; binding result [7]: binds |
| B8 | – | binds | binds | binds | ~2 | – |
| B9 | binds | – | – | – | – | – |
| B10 | binds | – | – | – | – | – |

— patent US20090130114A1 (Amgen, published 2009)
